Results on three substances are retold here after patent US20070280881A1.

For the experiment, the target named is TAG-72 (tumor associated antigen TAG-72) (human). Briefly: binding data (text calls it ED50), method not stated; ELISA on TAG-72 coated plates per Example 7. Background: In an ELISA, binding on a coated surface is turned into a signal by an enzyme label.
In general, Kd refers to the constant that tells how readily two partners part at equilibrium. A higher Kd goes with lower affinity. The substance “CC49.ΔCH2 [gly/ser] (domain deleted CC49 with Gly/Ser spacer) (antibody)” returned a dissociation constant Kd of 1.8 nM. In other words, the single-digit nanomolar range. Then “ddCC49, no spacer (huCC49.ΔCH2, unfractionated mixture of 120 kDa and 240 kDa forms) (antibody)”, with 0.8 nM; and Humanized CC49 IgG (antibody), with 2.5 nM.
